Measurements: article PMC9482650, “Quantitative fragmentomics allow affinity mapping of interactomes” (Nature Communications, 2022)

Experiments:
Test in all cases: holdup assay
Details in all cases: plain residues with an end cap or a label only (N-terminal biotin on a linker: (peg)3)
APBA3_2, O96018 = target: T1, APBA3_2, O96018
T1 sequence (O96018 480-570, limits assumed, looked up): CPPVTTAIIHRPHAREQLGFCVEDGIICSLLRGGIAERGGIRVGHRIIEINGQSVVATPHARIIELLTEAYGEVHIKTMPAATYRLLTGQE

CARD14, Q9BXL6 = target: CARD14, Q9BXL6
Chain of CARD14, Q9BXL6 (Q9BXL6 558-663): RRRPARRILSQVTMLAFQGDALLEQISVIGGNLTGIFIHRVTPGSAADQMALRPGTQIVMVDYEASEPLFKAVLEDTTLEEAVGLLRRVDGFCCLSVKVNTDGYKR

CNKSR3, Q6P9H4 = target: CNKSR3, Q6P9H4
Chain of CNKSR3, Q6P9H4 (Q6P9H4 203-303): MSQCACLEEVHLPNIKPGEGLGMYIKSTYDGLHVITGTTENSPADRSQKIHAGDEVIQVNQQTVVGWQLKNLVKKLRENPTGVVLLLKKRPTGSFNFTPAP

DVL1, O14640 = target: T2, DVL1, O14640
T2 sequence (O14640 246-333, limits assumed, looked up): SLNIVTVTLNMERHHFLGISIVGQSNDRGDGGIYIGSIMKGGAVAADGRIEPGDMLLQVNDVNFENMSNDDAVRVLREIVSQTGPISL

INTU, Q9ULD6 = target: T3, INTU, Q9ULD6
T3 sequence (Q9ULD6 180-273, limits assumed, looked up): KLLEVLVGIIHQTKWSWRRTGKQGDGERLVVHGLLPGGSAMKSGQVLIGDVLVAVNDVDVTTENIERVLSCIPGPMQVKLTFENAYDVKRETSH

LNX1_4, Q8TBB1 = target: LNX1_4, Q8TBB1
Chain of LNX1_4, Q8TBB1 (Q8TBB1 631-726): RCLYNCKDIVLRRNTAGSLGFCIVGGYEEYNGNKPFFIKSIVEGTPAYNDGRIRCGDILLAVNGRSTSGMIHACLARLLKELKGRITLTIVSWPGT

LNX2_4, Q8N448 = target: T4, LNX2_4, Q8N448
T4 sequence (Q8N448 595-690, limits assumed, looked up): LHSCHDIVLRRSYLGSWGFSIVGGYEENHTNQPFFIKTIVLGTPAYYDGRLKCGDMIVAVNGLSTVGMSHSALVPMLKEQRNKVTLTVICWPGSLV

MAGI3_3, Q5TCQ9 = target: MAGI3_3, Q5TCQ9
Chain of MAGI3_3, Q5TCQ9 (Q5TCQ9 572-655): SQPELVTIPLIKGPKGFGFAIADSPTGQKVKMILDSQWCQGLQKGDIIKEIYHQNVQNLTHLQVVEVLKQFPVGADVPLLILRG

MAST3, O60307 = target: MAST3, O60307
Chain of MAST3, O60307 (O60307 945-1048): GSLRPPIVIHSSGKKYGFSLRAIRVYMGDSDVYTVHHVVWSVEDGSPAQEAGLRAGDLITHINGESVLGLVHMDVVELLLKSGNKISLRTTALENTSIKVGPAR

MPDZ_6, O75970 = target: T5, MPDZ_6, O75970
T5 sequence (O75970 1003-1099, limits assumed, looked up): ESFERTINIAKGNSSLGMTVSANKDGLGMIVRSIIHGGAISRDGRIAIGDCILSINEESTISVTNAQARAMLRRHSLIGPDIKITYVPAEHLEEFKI

MPP1, Q00013 = target: T6, MPP1, Q00013
T6 sequence (Q00013 66-162, limits assumed, looked up): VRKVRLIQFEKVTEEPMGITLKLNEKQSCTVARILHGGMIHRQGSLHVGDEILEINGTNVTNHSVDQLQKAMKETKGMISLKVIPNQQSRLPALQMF

NHERF1_1, O14745 = target: T7, NHERF1_1, O14745
T7 sequence (O14745 9-104, limits assumed, looked up): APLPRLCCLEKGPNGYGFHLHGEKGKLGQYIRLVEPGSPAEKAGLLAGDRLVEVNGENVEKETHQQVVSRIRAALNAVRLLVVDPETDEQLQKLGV

NHERF2_1, Q15599 = target: NHERF2_1, Q15599
Chain of NHERF2_1, Q15599 (Q15599 9-91): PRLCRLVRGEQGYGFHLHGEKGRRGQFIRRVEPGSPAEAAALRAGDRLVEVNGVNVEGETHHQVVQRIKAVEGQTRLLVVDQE

NHERF3_2, Q5T2W1 = target: T8, NHERF3_2, Q5T2W1
T8 sequence (Q5T2W1 129-225, limits assumed, looked up): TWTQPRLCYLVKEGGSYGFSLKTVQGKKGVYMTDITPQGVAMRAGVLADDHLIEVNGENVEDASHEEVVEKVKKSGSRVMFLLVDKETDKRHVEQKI

PARD3B_2, Q8TEW8 = target: PARD3B_2, Q8TEW8
Chain of PARD3B_2, Q8TEW8 (Q8TEW8 376-471): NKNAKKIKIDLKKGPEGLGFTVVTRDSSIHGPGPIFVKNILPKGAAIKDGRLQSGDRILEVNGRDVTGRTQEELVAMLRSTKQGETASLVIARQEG

PARD3B_3, Q8TEW8 = target: PARD3B_3, Q8TEW8
Chain of PARD3B_3, Q8TEW8 (Q8TEW8 490-594): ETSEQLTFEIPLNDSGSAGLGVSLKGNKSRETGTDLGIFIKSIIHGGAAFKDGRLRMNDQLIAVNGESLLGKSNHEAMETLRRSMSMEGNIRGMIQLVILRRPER

PARD6G, Q9BYG4 = target: T9, PARD6G, Q9BYG4
T9 sequence (Q9BYG4 153-261, limits assumed, looked up): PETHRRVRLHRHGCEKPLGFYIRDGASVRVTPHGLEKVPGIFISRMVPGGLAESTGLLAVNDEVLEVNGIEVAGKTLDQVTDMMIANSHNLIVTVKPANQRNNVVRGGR

PDZD2_3, O15018 = target: T10, PDZD2_3, O15018
T10 sequence (O15018 581-682, limits assumed, looked up): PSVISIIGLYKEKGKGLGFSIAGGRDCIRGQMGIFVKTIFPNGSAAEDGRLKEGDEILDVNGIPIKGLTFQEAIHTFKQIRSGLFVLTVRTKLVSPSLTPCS

PDZD7_2, Q9H5P4 = target: T11, PDZD7_2, Q9H5P4
T11 sequence (Q9H5P4 205-303, limits assumed, looked up): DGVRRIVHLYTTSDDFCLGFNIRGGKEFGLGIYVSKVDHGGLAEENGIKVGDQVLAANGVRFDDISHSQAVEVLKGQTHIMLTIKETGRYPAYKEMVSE

PDZD9, Q8IXQ8 = target: PDZD9, Q8IXQ8
Chain of PDZD9, Q8IXQ8 (Q8IXQ8 23-120): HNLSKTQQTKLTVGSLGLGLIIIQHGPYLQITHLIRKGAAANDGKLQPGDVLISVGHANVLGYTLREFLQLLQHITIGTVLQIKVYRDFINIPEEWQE

PREX1_1, Q8TCU6 = target: PREX1_1, Q8TCU6
Chain of PREX1_1, Q8TCU6 (Q8TCU6 608-718): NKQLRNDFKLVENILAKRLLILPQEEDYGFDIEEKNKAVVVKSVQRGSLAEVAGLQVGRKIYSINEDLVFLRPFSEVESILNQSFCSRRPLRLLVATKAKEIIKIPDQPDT

PTPN13_2, Q12923 = target: PTPN13_2, Q12923
Chain of PTPN13_2, Q12923 (Q12923 1363-1462): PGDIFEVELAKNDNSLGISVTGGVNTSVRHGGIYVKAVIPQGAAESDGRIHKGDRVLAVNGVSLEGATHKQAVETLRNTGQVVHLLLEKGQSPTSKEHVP

PTPN13_5, Q12923 = target: T12, PTPN13_5, Q12923
T12 sequence (Q12923 1877-1975, limits assumed, looked up): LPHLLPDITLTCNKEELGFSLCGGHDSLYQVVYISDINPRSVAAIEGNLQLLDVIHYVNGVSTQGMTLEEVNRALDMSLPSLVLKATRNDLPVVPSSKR

RGS12, O14924 = target: T13, RGS12, O14924
T13 sequence (O14924 17-108, limits assumed, looked up): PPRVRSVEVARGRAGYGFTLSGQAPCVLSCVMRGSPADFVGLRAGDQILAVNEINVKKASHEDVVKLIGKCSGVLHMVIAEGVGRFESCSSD

RIMS1, Q86UR5 = target: RIMS1, Q86UR5
Chain of RIMS1, Q86UR5 (Q86UR5 584-692): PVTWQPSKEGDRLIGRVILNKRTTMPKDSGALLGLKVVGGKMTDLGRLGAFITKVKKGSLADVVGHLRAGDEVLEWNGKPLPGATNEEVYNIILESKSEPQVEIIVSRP

NLNSSEGVPDLLV [SARS-CoV-E, P59637]
pKd (APBA3_2, O96018): below the threshold | pKd (CARD14, Q9BXL6): below the threshold | pKd (CNKSR3, Q6P9H4): below the threshold | pKd (DVL1, O14640): below the threshold | pKd (INTU, Q9ULD6): below the threshold | pKd (LNX1_4, Q8TBB1): below the threshold | pKd (LNX2_4, Q8N448): 3.74 | pKd (MAGI3_3, Q5TCQ9): 3.85 | pKd (MAST3, O60307): below the threshold | pKd (MPDZ_6, O75970): below the threshold | pKd (MPP1, Q00013): below the threshold | pKd (NHERF1_1, O14745): below the threshold | pKd (NHERF2_1, Q15599): below the threshold | pKd (NHERF3_2, Q5T2W1): below the threshold | pKd (PARD3B_2, Q8TEW8): below the threshold | pKd (PARD3B_3, Q8TEW8): below the threshold | pKd (PARD6G, Q9BYG4): below the threshold | pKd (PDZD2_3, O15018): below the threshold | pKd (PDZD7_2, Q9H5P4): below the threshold | pKd (PDZD9, Q8IXQ8): below the threshold | pKd (PREX1_1, Q8TCU6): below the threshold | pKd (PTPN13_2, Q12923): below the threshold | pKd (PTPN13_5, Q12923): below the threshold | pKd (RGS12, O14924): below the threshold | pKd (RIMS1, Q86UR5): below the threshold
